Source: article PMC7697860
Where two headings read alike, the source gives them in different places.

Columns and labels:
[1] = target: GST-PfPV1 (wheat germ cell-free expression) (Plasmodium falciparum 3D7); assay: SPR; […] (amine coupling), […]; Biacore X100, single-cycle kinetics, 1:1; HBS-EP+ (10 mM HEPES pH 7.4, 150 mM NaCl, 3 mM EDTA, 0.05% P20)
[2] = target: GST-PfPV1 (wheat germ cell-free expression) (Plasmodium falciparum 3D7); assay: as above; remark: listed apart in the source

| Substance | Kd [1] [nM] | koff [1] [s⁻¹] | kon [1] [M⁻¹ s⁻¹] | Kd [2] [nM] |
| --- | --- | --- | --- | --- |
| GST-EXP2 (natural protein) | 110 | 0.000989 | 9030 | – |
| GST-HSP101 (natural protein) | 10.5 | 0.000914 | 87000 | – |
| GST-PTEX150 (natural protein) | 54.5 | 0.00204 | 37300 | 54.6 |
